Ends that are not written are not given here.
T1: CRF2R
T1 sequence (Q13324 whole entry, species assumed, looked up): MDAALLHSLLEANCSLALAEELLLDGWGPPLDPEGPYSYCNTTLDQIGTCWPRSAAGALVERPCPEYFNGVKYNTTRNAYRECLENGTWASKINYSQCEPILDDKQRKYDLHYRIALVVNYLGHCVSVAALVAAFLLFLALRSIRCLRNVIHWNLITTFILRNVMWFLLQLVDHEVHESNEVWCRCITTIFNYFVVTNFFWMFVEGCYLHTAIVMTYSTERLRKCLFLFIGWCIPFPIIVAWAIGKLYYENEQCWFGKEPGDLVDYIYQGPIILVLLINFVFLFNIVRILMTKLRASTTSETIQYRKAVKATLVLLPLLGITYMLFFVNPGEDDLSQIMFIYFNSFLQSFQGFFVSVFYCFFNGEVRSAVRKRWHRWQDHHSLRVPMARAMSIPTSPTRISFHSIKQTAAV


What was measured:
[1] = target: T1, CRF2R; assay: cell-based or functional assay
[2] = target: CRF1R; assay: cell-based or functional assay

| Binder | CRF2R EC50 [1] [nM] | CRF2R Emax [1] [%] | CRF1R EC50 [2] [nM] | CRF1R Emax [2] [%] |
| --- | --- | --- | --- | --- |
| ZGPPISIDLPFQLLRKMIEIEKQEKEKQQATTNRLLLDTI (C-terminal amide) [SEQ ID NO 13] | 3.88 | 79 | 97.7 | 69 |
| ZGPPISIDLPFQLLRKMIEIEKQEKEKQQATNNRLLLDTI (C-terminal amide) [SEQ ID NO 14] | 6.33 | 90 | 109 | 92 |
| ZGPPISIDLPFQLLRKMIEIEKQEKEKQQAAANRLLLDTV (C-terminal amide) [SEQ ID NO 15] | 6.56 | 97 | 85.3 | 86 |
| ZGPPISIDLPFQLLRKMIEIEKQEKEKQQATTNRLLLDTV (C-terminal amide) [SEQ ID NO 16] | 7.88 | 86 | 136 | 98 |
| IVLSLDVPIGLLQILLEQTRARAAREQATTNARILARV-NH2 [SEQ ID NO 128] | 2.85 | 98 | > 100 | 8 |
| IVLSLDVPIGLLQILLEQAARAAREQATTNARILARV-NH2 [SEQ ID NO 135] | > 100 | 76 | > 100 | 6 |
| IVLSLDVPIGLLQILLEQARADAAREQATTNARILARV-NH2 [SEQ ID NO 130] | 8.57 | 92 | > 100 | 9 |
| IVLSLDVPIGLLQILLEQRAAREQATTNARILARV-NH2 [SEQ ID NO 136] | 23.4 | 68 | > 100 | 8 |
| IVLSLDVPIGLLQILLEQEKQEAAREQATTNARILARV-NH2 [SEQ ID NO 125] | 4.47 | 99 | > 100 | 9 |
| IVLSLDVPIGLLQILLEQEKEKKRKETNARILARV-NH2 [SEQ ID NO 132] | 7.53 | 88 | > 100 | 8 |
| IVLSLDVPIGLLQILLEQTKARAAREQATTNARILARV-NH2 [SEQ ID NO 129] | 3.83 |  | > 100 |  |
| IVLSLDVPIGLLQILLEQARQEAAREQATTNARILARV-NH2 [SEQ ID NO 123] | 3.49 | 93.8 | > 1000 | 9.6 |
| IVLSLDVPIGLLQILLEQAAREQATTNARILARV-NH2 [SEQ ID NO 138] | 59 | 46 | > 100 | 5 |
| IVLSLDVPIGLLQILLEQTRADAAREQATTNARILARV-NH2 [SEQ ID NO 126] | 13 | 91 | > 100 | 7 |
| IVLSLDVPIGLLQILLEQAKADAAREQATTNARILARV-NH2 [SEQ ID NO 131] | 5.25 | 91 | > 100 | 8 |
| IVLSLDVPIGLLQILLEQRRAAREQATTNARILARV-NH2 [SEQ ID NO 133] | 12.2 | 88 | > 100 | 4 |
| IVLSLDVPIGLLQILLEQAKARAAREQATTNARILARV-NH2 [SEQ ID NO 127] | 7.79 |  | > 100 |  |
| IVLSLDVPIGLLQILLEQAAAAREQATTNARILARV-NH2 [SEQ ID NO 134] | > 100 | 19 | > 100 | 7 |
| IVLSLDVPIGLLQILLEQRARAAREQATTNARILARV-NH2 [SEQ ID NO 137] | 36.9 | 100 | > 100 | 4 |
| IVLSLDVPIGLLQILLEQAAAREQATTNARILARV-NH2 [SEQ ID NO 139] | 42.6 | 60 | > 100 | 4 |
| IVLSLDVPIGLLQILLEQAKQEAAREQATTNARILARV-NH2 [SEQ ID NO 124] | 3.49 | 94 | > 100 | 6 |

Further lines, results first:

| CRF2R EC50 [1] [nM] | CRF2R Emax [1] [%] | CRF1R EC50 [2] [nM] | CRF1R Emax [2] [%] | Binder |
| --- | --- | --- | --- | --- |
| 9.29 | 79 | > 100 | 6 | ZGPPISIDLSLELLRKMIEQARARAAREQATTNARILARV (C-terminal amide) [SEQ ID NO 156] |
| 10.3 | 100 | > 100 | 7 | IVLSLDVPIGLLQILIEIEKQEKEKQQAANNRLLLDTI-NH2 [SEQ ID NO 154] |
| 20.6 | 94 | 40.6 | 16 | IVLSLDVPIGLLQILLEMTKADQLAQQAHSNRKLLDIA-NH2 [SEQ ID NO 155] |
| > 100 | 29 | > 100 | 7 | IVLSLDVPIGLLQILLEQARAAAREQATTNARILARV-NH2 [SEQ ID NO 141] |
| 9.28 | 97 | > 100 | 7 | ZGIVLSLDVPIGLLRKMIEIEKQEKEKQQAANNRLLLDTI (C-terminal amide) [SEQ ID NO 153] |
| 9.08 | 77 | 43.5 | 85.3 | ZGPPISIDLSLELLRKMIEIEKQEKEKQQATTNARILARV (C-terminal amide) [SEQ ID NO 142] |
| 36.8 | 96 | 1000 | 19.9 | ZGPPISIDLPTYLLRKMIEIEKQEKEKQQATTNARILARV (C-terminal amide) [SEQ ID NO 151] |
| 8.2 | 84.5 | 103 | 100 | ZGPPISIDLPFHLLRKMIEIEKQEKEKQQATTNARILARV (C-terminal amide) [SEQ ID NO 146] |
| 7.8 | 69 | 196 | 91.3 | ZGPPISIDLPLHLLRKMIEIEKQEKEKQQATTNARILARV (C-terminal amide) [SEQ ID NO 145] |
| 34.6 | 70.5 | 1000 | 5.7 | ZGPPISIDLPIQLLRKMIEIEKQEKEKQQATTNARILARV (C-terminal amide) [SEQ ID NO 150] |
| 11.1 | 85.5 | 232 | 100 | ZGPPISIDLPLELLRKMIEIEKQEKEKQQATTNARILARV (C-terminal amide) [SEQ ID NO 143] |
| 6.75 | 94 | 102 | 96 | ZGPPISIDLPFYLLRKMIEIEKQEKEKQQATTNARILARV (C-terminal amide) [SEQ ID NO 147] |
| 26.2 | 95.5 | 1000 | 40.7 | ZGPPISIDLPIYLLRKMIEIEKQEKEKQQATTNARILARV (C-terminal amide) [SEQ ID NO 149] |
| 9.16 | 85.5 | 567 | 100 | ZGPPISIDLPLQLLRKMIEIEKQEKEKQQATTNARILARV (C-terminal amide) [SEQ ID NO 144] |
| 9.45 | 51.5 | 295 | 100 | ZGPPISIDLPFQLLRKMIEIEKQEKEKQQATTNARILARV (C-terminal amide) [SEQ ID NO 148] |
| > 100 | 19 | > 100 | 4 | SQEIVLSLDVPIGLLREVLEMTKADQLAQQAHSNRKLLDIA-NH2 [SEQ ID NO 152] |
| 42 | 60.6 | 100 | 91 | SQEPPISLDLTFHLLREVLEQARARAAREQATTNARILARV-NH2 [SEQ ID NO 157] |

Source: patent publication US20030148956A1 (PROCTER AND GAMBLE, published 2003)
